Experimental data reported in the Human Domainome abundance scans (Beltran et al. 2025).

B1: Cold shock protein CspB, residues 1 to 66; numbered along this chain, P41016 (parent)
chain: MQRGKVKWFNNEKGYGFIEVEGGSDVFVHFTAIQGEGFKTLEEGQEVSFEIVQGNRGPQAANVVKL

Variants of: B1
Assay: abundance fitness (aPCA) (normalised: wild type 0, dead -1); higher = more abundant; growth selection in yeast, the domain comes from the species named
Conditions: Bacillus caldolyticus

Abundance fitness: each site, then its substitutions
S24: A -0.011; C -0.029; I -0.033; W -0.031; D -0.002; Q -0.004; F -0.025; M -0.019; V -0.016
N10: A -0.047; T -0.118; K -0.038; C -0.027; S 0.01; Q -0.025; D -0.086; R -0.031; M -0.083; L -0.069; P -0.792; I -0.023; E -0.079; W -0.122; F -0.132; Y -0.214
E12: G -0.02; V -0.064; S 0.022; M 0.004; T 0.034; W 0.005; H 0.009; F 0.006; I -0.198; Q 0.017; Y 0.016; P 0.036; L 0.017; C -0.004; R 0.049; N 0.042; D -0.021; K 0.077; A 0.036
F9: M -0.233; V -0.239; E -0.827; Y -0.119; C -0.35; W -0.092; D -0.881; T -0.306; R -0.583; A -0.303; S -0.408; I -0.272; Q -0.854; H -0.567; G -0.939; P -0.956; K -0.389; N -0.854
K5: P -0.22; S -0.027; Y -0.072; I -0.037; Q -0.056; V -0.03; E -0.065; H 0.005; M -0.069; R -0.035; N -0.029; F -0.008; C -0.003; A -0.042; G -0.222; D -0.156; W -0.052
F17: C -0.18; D -0.558; R -0.132; Y -0.192; N -0.171; S -0.171; H -0.151; T -0.126; G -0.236; M -0.139; K -0.138; W -0.084; L -0.171; P -0.977; E -0.172; Q -0.161; I -0.128; A -0.159; V -0.165
K7: Y -0.316; P -0.817; G -0.106; V -0.034; D -0.199; H -0.088; F -0.3; N -0.016; E -0.225; C -0.003; L -0.058; M -0.072; A -0.002; R -0.045; Q -0.07; T -0.052; W -0.49; I 0.02; S -0.033
N11: L -0.003; M -0.042; G -0.071; Q -0.138; S -0.033; E -0.027; C -0.051; F -0.052; T -0.025; H -0.027; Y -0.111; I -0.065; K -0.047; R -0.017; D 0.028; A -0.052
D25: A -0.113; F -0.251; E -0.082
Y15: H -0.089; K -0.189; Q -0.19; G -0.285; N -0.256; V -0.155; F -0.047; W 0.023; M -0.138; A -0.233; L -0.117; E -0.188; D -0.332; S -0.22; C -0.186; P -0.885; R -0.227
E21: T 0.014; D -0.028; S -0.009; V 0.013; Y -0.022; M -0.051; W -0.033; F -0.052; A 0.017; K -0.017; Q -0.007; G 0.02; I 0.034; H 0.027
